Marks after values point to notes of the source that are not given here.
Assays:
Assay type in all cases: physicochemical
[1] = Dextran ratio optimization: radio-TLC purity; conditions: Dextran 10% w/w, 25 μCi/ml, 100 mM sodium ascorbate, 0.05 mg/ml DTPA, saline, pH 5.80, 25° C.
Method: (§1) The mixture was kept at room temperature (25° C.). At different time points, radioactive components of the formulated dose were measured by radio-TLC as described in the table below: […]

[2] = EGCg concentration: radio-TLC purity; conditions: 25 μCi/ml, 100 mM sodium ascorbate pH 5.80, 0.05 mg/ml DTPA, saline, 25° C.
Method: as §1

[3] = Radioactivity concentration optimization: radio-TLC purity; conditions: 100 mM sodium ascorbate pH 5.80, 0.05 mg/ml DTPA, 25° C.
Method: The mixture was kept at room temperature (25° C.) and protected from light to prevent photodegradation. At different time points, purity of [^225Ac]Ac-DOTA-TATE in the formulated dose were measured by radio-TLC as described in the table below: […]

With “(2,2′,2″-(10-(2-4(R)-1-(((4R,7S,10S,13R,16S,19R)-13-((1H-indol-3-yl)methyl)-10-(4-aminobutyl)-4-(((1S,2R)-1-carboxy-2-hydroxypropyl)carbamoyl)-16-(4-hydroxybenzyl)-7-((R)-1-hydroxyethyl)-6,9,12,15,18-pentaoxo-1,2-dithia-5,8,11,14,17-pentaazacycloicosan-19-yl)amino)-1-oxo-3-phenylpropan-2-yl)amino)-2-oxoethyl)-1,4,7,10-tetraazacyclododecane-1,4,7-triyl)triacetate; actinium-225(3+)) [[^225Ac]Ac-DOTA-TATE]” the “Percentage of ^225Ac present in [^225Ac]Ac-DOTA-TATE” value (“Percentage of ^225Ac present” for short) ([1]; 0 hour) was 99.67%, the “Percentage of ^225Ac present” value ([1]; 24 hours) was 99.02% and the “Percentage of ^225Ac present” value ([1]; 48 hours) was 98.75%. The “Percentage of ^225Ac present” value ([1]; 72 hours) was 97.83%, the “Percentage of ^225Ac present” value ([1]; 96 hours) was 96.42% and the “Percentage of ^225Ac present” value ([1]; 120 hours) was 96.58%. The “Percentage of ^225Ac present” value ([1]; 144 hours) was 95.37%, the “Percentage of ^225Ac present” value ([2]; EGCg 0 mg/ml, 0 hour) was 99.90% and the “Percentage of ^225Ac present” value ([2]; EGCg 0 mg/ml, 24 hours) was 99.42%. For the same substance, the “Percentage of ^225Ac present” value ([2]; EGCg 0 mg/ml, 48 hours) was 98.73%, the “Percentage of ^225Ac present” value ([2]; EGCg 0 mg/ml, 72 hours) was 97.77% and the “Percentage of ^225Ac present” value ([2]; EGCg 0 mg/ml, 96 hours) was 97.13%. For the same substance, the “Percentage of ^225Ac present” value ([2]; EGCg 0 mg/ml, 120 hours, non-homogeneous sampling) was 98.09* %, the “Percentage of ^225Ac present” value ([2]; EGCg 0 mg/ml, 144 hours) was 94.64% and the “Percentage of ^225Ac present” value ([2]; EGCg 0.5 mg/ml, 0 hour) was 99.61%. The “Percentage of ^225Ac present” value ([2]; EGCg 0.5 mg/ml, 24 hours) was 98.92%, the “Percentage of ^225Ac present” value ([2]; EGCg 0.5 mg/ml, 48 hours) was 98.48% and the “Percentage of ^225Ac present” value ([2]; EGCg 0.5 mg/ml, 72 hours) was 97.97%. For the same substance, the “Percentage of ^225Ac present” value ([2]; EGCg 0.5 mg/ml, 96 hours) was 96.44%, the “Percentage of ^225Ac present” value ([2]; EGCg 0.5 mg/ml, 120 hours) was 95.65% and the “Percentage of ^225Ac present” value ([2]; EGCg 0.5 mg/ml, 144 hours) was 93.04%. The “Percentage of ^225Ac present” value ([2]; EGCg 1 mg/ml, 0 hour) was 99.76%, the “Percentage of ^225Ac present” value ([2]; EGCg 1 mg/ml, 24 hours) was 99.14% and the “Percentage of ^225Ac present” value ([2]; EGCg 1 mg/ml, 48 hours) was 98.83%. For the same substance, the “Percentage of ^225Ac present” value ([2]; EGCg 1 mg/ml, 72 hours) was 98.04%, the “Percentage of ^225Ac present” value ([2]; EGCg 1 mg/ml, 96 hours) was 97.15% and the “Percentage of ^225Ac present” value ([2]; EGCg 1 mg/ml, 120 hours) was 94.82%. The “Percentage of ^225Ac present” value ([2]; EGCg 1 mg/ml, 144 hours) was 95.65%, the “Percentage of ^225Ac present” value ([2]; EGCg 3 mg/ml, 0 hour) was 99.81% and the “Percentage of ^225Ac present” value ([2]; EGCg 3 mg/ml, 24 hours) was 98.57%. The “Percentage of ^225Ac present” value ([2]; EGCg 3 mg/ml, 48 hours) was 98.00%, the “Percentage of ^225Ac present” value ([2]; EGCg 3 mg/ml, 72 hours) was 96.55% and the “Percentage of ^225Ac present” value ([2]; EGCg 3 mg/ml, 96 hours) was 96.42%. The “Percentage of ^225Ac present” value ([2]; EGCg 3 mg/ml, 120 hours) was 96.05%, the “Percentage of ^225Ac present” value ([2]; EGCg 3 mg/ml, 144 hours) was 90.71% and the “Percentage of ^225Ac present” value ([3]; 15 μCi/ml, 0 hour) was 99.37%. For the same substance, the “Percentage of ^225Ac present” value ([3]; 15 μCi/ml, 24 hours) was 96.92%, the “Percentage of ^225Ac present” value ([3]; 15 μCi/ml, 48 hours) was 96.08% and the “Percentage of ^225Ac present” value ([3]; 15 μCi/ml, 72 hours) was 98.74%. For the same substance, the “Percentage of ^225Ac present” value ([3]; 15 μCi/ml, 96 hours) was 94.83%, the “Percentage of ^225Ac present” value ([3]; 15 μCi/ml, 120 hours) was 93.49% and the “Percentage of ^225Ac present” value ([3]; 32 μCi/ml, 0 hour) was 99.39%. The “Percentage of ^225Ac present” value ([3]; 32 μCi/ml, 24 hours) was 97.92%, the “Percentage of ^225Ac present” value ([3]; 32 μCi/ml, 48 hours) was 97.13% and the “Percentage of ^225Ac present” value ([3]; 32 μCi/ml, 72 hours) was 95.31%. For the same substance, the “Percentage of ^225Ac present” value ([3]; 32 μCi/ml, 96 hours) was 92.52%, the “Percentage of ^225Ac present” value ([3]; 32 μCi/ml, 120 hours) was 85.90% and the “Percentage of ^225Ac present” value ([3]; 68 μCi/ml, 0 hour) was 99.06%. The “Percentage of ^225Ac present” value ([3]; 68 μCi/ml, 24 hours) was 98.22%, the “Percentage of ^225Ac present” value ([3]; 68 μCi/ml, 48 hours) was 95.93% and the “Percentage of ^225Ac present” value ([3]; 68 μCi/ml, 72 hours) was 95.36%. For the same substance, the “Percentage of ^225Ac present” value ([3]; 68 μCi/ml, 96 hours) was 86.92%, the “Percentage of ^225Ac present” value ([3]; 126 μCi/ml, 0 hour) was 99.11% and the “Percentage of ^225Ac present” value ([3]; 126 μCi/ml, 24 hours) was 95.77%. The “Percentage of ^225Ac present” value ([3]; 126 μCi/ml, 48 hours) was 84.99%, the “Percentage of ^225Ac present” value ([3]; 301 μCi/ml, 0 hour) was 99.09% and the “Percentage of ^225Ac present” value ([3]; 301 μCi/ml, 24 hours) was 97.53%. For the same substance, the “Percentage of ^225Ac present” value ([3]; 301 μCi/ml, 48 hours) was 88.78%, the “Percentage of ^225Ac present” value ([3]; 550 μCi/ml, 0 hour) was 98.87% and the “Percentage of ^225Ac present” value ([3]; 550 μCi/ml, 24 hours) was 97.04%. For the same substance, the “Percentage of ^225Ac present” value ([3]; 550 μCi/ml, 48 hours) was 85.63%.

Source: patent US11819556B2, “Stabilized compositions of radionuclides and uses thereof” (RayzeBio, Inc., priority 2021, dated 2023)
